Results published in the supplement of paper PMC11780869.

System: Bacillus subtilis
Test: cleaved RNA product abundance (RNA/gDNA barcode ratio) relative to median wild-type variant (ratio to wild type); higher = more accumulation of the downstream cleavage product
Method in brief: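 Cleaved product abundance for each construct is its RNA-to-gDNA barcode ratio, scaled to the median construct carrying the unmutated site. Cleaved RNA was isolated on a gel, reverse transcribed and barcode-sequenced, with genomic DNA barcodes sequenced alongside and UMIs collapsed. The reporters were truncated aprE or tetM mRNAs with barcoded, mutagenized RNase Y cleavage-site windows integrated into the B. subtilis chromosome, and cultures grew in LB at 37°C from OD600 0.0003 to 0.3.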

[1] = experiment (reporter, strain, medium): exp 8a: truncated aprE reporter, strain BJT201 with 2% xylose (RNase J1 expressed), cleavage site: glnRA (positions -5 to +31 mutated)
[2] = experiment (reporter, strain, medium): exp 4a: truncated aprE reporter, strain BJT201 with 2% xylose (RNase J1 expressed), cleavage site: cggR-gapA (positions -7 to +36 mutated)
[3] = experiment (reporter, strain, medium): exp 2b: truncated aprE reporter, strain BJT200, cleavage site: cggR-gapA (positions -7 to +36 mutated)

| Sequence | cleaved RNA product abundance [1] | cleaved RNA product abundance [2] | other results |
| --- | --- | --- | --- |
| CGACATGTCCCGCTTCTTTCATTAATCCGTTAGCAACTGTTTTACTATATACATTTTCCTTTTAAGAGGAGGAAT | 0.458 | – | – |
| ACAGACGAAGGAGCCGCAAAGAAGTTATTAAGGGAAGAATAGTCCCTCAATATAAATATCTCTCACTTATTTAAA | – | 0.594 | – |
| CGACATGTCCCGCTTCTTTCATTATTCCGTTAGCAACTGTTTTGCTATATACATTTACTTTTTAAGAGGAGGAAT | 1.96 | – | – |
| CGACATGTCCCGCTTCTTTCATTAAGCCGTTAGCAACTGTTTTGTTATATACATTTACCTTTTAAGAGGAGGAAT | 0.364 | – | – |
| ACAGACGAAGGAGCCGCAAAGAAGTTATTAAGGGATGGATAATCCCTCAATATAAATATCTCTCACTTATTTAAA | – | 0.884 | cleaved RNA product abundance [3]: 0.623; cleaved RNA product abundance (experiment (reporter, strain, medium): exp 6: tetM reporter, strain 168, cleavage site: cggR-gapA (positions -7 to +36 mutated)): 0.969 |
| ACAGACGAAGGAGCCGCAAAGAAGTTATTAAGGGATGCATAAGCCCTCAATATAAATATCTCTCACTTATTTAAA | – | 0.732 | – |
| ACAGACGAAGGAGCCGCAAAAAAGTTATTAAAGGATGAATAATCCCTCAATATAAATATCTCTCACTTATTTAAA | – | 0.224 | cleaved RNA product abundance [3]: 0.164 |
| ACAGACGAAGGAGCCGCAAAGTAGTTAATAAGGGATGAATAATCCCTCAATATAAATATCTCTCACTTATTTAAA | – | 0.433 | cleaved RNA product abundance [3]: 0.292 |
| CGACATGTCCCGCTTCTTTCATTAATCCGTTAGCAACTGTTTTGCTATATACATTCACCTTTTAAGAGGAGGAAT | 0.581 | – | – |
| ACAGACGAAGGAGCCGCAAAGAAGTTATTAAGGGATCAATAATCCCTCAACATAAATATCTCTCACTTATTTAAA | – | 0.258 | – |
| ACAGACGAAGGAGCCGCAATGAAGTTATTAAGGGATGAATAATCCCTCTATATAAATATCTCTCACTTATTTAAA | – | 0.689 | – |
| CGACATGTCCCGCTTCTTTCATTAATCCGTTTGCAACTGTTTTGATATATACATTTACCTTTTAAGAGGAGGAAT | 0.421 | – | – |
| CGACATGTCCCGCTTCTTTCATTATTCCGTTAGCAACTGTTTTGCGATATACATTTACCTTTTAAGAGGAGGAAT | 0.52 | – | – |
| ACAGACGAAGGAGCCGCAAAGAAGTTAGTAAGGGAAGAATAATCCCTCAATATAAATATCTCTCACTTATTTAAA | – | 0.302 | – |
| ACAGACGAAGGAGCCGCAAAGAAGTTATTAAGTGATGAATAATCCCTCAATTTAAATATCTCTCACTTATTTAAA | – | 0.0598 | cleaved RNA product abundance [3]: 0.0957 |
| ACAGACGAAGGAGCCGCAAAGAAGTTATTGAGGGATGAATAATCCCTCAATATACATATCTCTCACTTATTTAAA | – | 0.0596 | – |
| ACAGACGAAGGAGCCGCAAAGAAGTTATTAAGGGATGAATAATCCCTCAAAATAAATATTTCTCACTTATTTAAA | – | 0.319 | – |
| ACAGACGAAGGAGCCGCAAAGAAGTTAATAAGGGATGAATAATGCCTCAATATAAATATCTCTCACTTATTTAAA | – | 0.124 | cleaved RNA product abundance [3]: 0.121 |
| ACAGACGAAGGAGCCGCAAAGAAGTTATTAAGGGATAAAAAATCCATCAATATAAATATCTCTCACTTATTTAAA | – | – | cleaved RNA product abundance [3]: 0.123 |
| CGACATGTCCCGCTTCTTTCATTAATCCGTTCGAAACTGTTTTGCTATATACATTTACCTTTTAAGAGGAGGAAT | 0.347 | – | – |
| ACAGACGAAGGAGCCGCAAAGAAGTTAGTAAGGGATTAATAATCCCTCAATATAAATATCTCTCACTTATTTAAA | – | 0.406 | – |
| ACAGACGAAGGAGCCGCAAAGAAGTTATTAAGGTATGAATAATCCCTCAGTATAAATATCTCTCACTTATTTAAA | – | 0.1 | – |
| ACAGACGAAGGAGCCGCAAAGAAGTTATTAAAGGATGAATAATCCCTCTATATAAATATCTCTCACTTATTTAAA | – | 0.18 | cleaved RNA product abundance [3]: 0.132 |
| ACAGACGAAGGAGCCGCAAAGAACTTATTAAGGGATGAATAATCCCTCCATATAAATATCTCTCACTTATTTAAA | – | 0.28 | – |
| CGACATGTCCCGCTTCTTTCATTACTCCGTTAGCAACTGTTTTTCTATATACATTTACCTTTTAAGAGGAGGAAT | 0.594 | – | – |
| CGACATGTCCCGCTTCTTTCATTATTCCGTTCGCAACTGTTTTGCTATATACATTTACCTTTTAAGAGGAGGAAT | 0.283 | – | – |
